Values quoted from earlier work in paper PMC7288020.

Target: Aβ1-40 Aβ 1-40 (Homo sapiens) (UniProt P05067)
UniProt P05067, sequence (P05067 1-40): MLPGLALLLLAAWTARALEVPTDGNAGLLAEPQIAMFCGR

- Kd: 6 nM
Substance: ApoA1 (from UniProt P02647)
